Measurements: article PMC7519114

What was measured:
[1] = molecular target: ACKR3 of primary mouse astrocytes (mouse (endogenous in primary astrocytes)) (UniProt P56485)
[2] = molecular target: ACKR3 of primary mouse astrocytes (mouse (endogenous in primary astrocytes)) (UniProt P56485); remark: listed apart in the source

Sequence of UniProt P56485 (P56485 whole entry): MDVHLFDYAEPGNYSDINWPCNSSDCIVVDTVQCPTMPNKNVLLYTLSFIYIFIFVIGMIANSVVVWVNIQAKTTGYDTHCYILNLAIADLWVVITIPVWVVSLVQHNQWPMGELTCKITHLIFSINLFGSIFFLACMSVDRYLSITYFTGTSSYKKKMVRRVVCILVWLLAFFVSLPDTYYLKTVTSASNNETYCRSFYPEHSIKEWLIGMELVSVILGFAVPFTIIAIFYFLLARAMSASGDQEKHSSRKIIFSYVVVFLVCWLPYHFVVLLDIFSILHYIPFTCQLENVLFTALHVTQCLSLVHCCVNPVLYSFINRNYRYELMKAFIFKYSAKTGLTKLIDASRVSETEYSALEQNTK

Human/Feline/Rhesus Macaque CXCL12 (from UniProt P48061 22-93) (ligand)
junctional current (Ij) magnitude in astrocyte cell pairs (double patch-clamp), after bath-application of CXCL12 [1]: 56.5%
inhibition of forskolin-induced cAMP production in astrocytes, CXCL12 (10 nM) [2]: 40.8 % inhibition
inhibition of forskolin-induced cAMP production in astrocytes, CXCL12 after pre-treatment with the CXCR4 antagonist AMD3100 (1 μM, 30 min) [2]: 44.9%

B1: Recombinant mouse CXCL11 (ligand)
chain: FLMFKQGRCLCIGPGMKAVKMAEIEKASVIYPSNGCDKVEVIVTMKAHKRQRCLDPRSKQARLIMQAIEKKNFLRRQNM
junctional current (Ij) magnitude in astrocyte cell pairs (double patch-clamp), after bath-application of CXCL11 [1]: 52%
